In paper PMC6748581:

Legend:
Experiment in all cases: SPR
[1] = target: Anti-IL-13 IgG1 ΔK-C242 IgA2m1 Fc Dimer (human) (UniProt P01591)
[2] = target: Anti-IL-13 IgG1 ΔK-P221 IgA2m1 Fc Dimer (human) (UniProt P01591)
[3] = target: anti-mIL-13 IgA1 Dimer (human) (UniProt P01591)
[4] = target: anti-mIL-13 IgA1 Monomer (human)
[5] = target: anti-mIL-13 IgA2m1 Dimer (human) (UniProt P01591)
[6] = target: anti-mIL-13 IgA2m1 Monomer (human)
[7] = target: anti-mIL-13 IgA2m1 P221R Dimer (human) (UniProt P01591)
[8] = target: anti-mIL-13 IgA2m1 P221R Monomer (human)
[9] = target: anti-mIL-13 IgA2m2 Dimer (human) (UniProt P01591)
[10] = target: anti-mIL-13 IgA2m2 Monomer (human)
[11] = target: anti-mIL-13 IgA2m2 Tetramer (human) (UniProt P01591)
[12] = target: anti-mIL-13 human IgG1 (human)
[13] = target: Anti-HER2 IgA2m2 Polymer Aglycosylated (human) (UniProt P01591)

| Molecule | Kd [1] [nM] | Kd [2] [nM] | Kd [3] [nM] | Kd [4] [nM] | Kd [5] [nM] | Kd [6] [nM] | Kd [7] [nM] | Kd [8] [nM] | Kd [9] [nM] | Kd [10] [nM] | Kd [11] [nM] | Kd [12] [µM] | Kd [13] [nM] |
| --- | --- | --- | --- | --- | --- | --- | --- | --- | --- | --- | --- | --- | --- |
| human Fc alpha receptor 1 (from UniProt P24071) | 938 | 1070 | 369 | 425 | 499 | 429 | 462 | 443 | 597 | 455 | 533 |  |  |
| human FcRn co-expressed with human beta-2 microglobulin (from UniProt P55899;P61769) (complex) | 9900 | 8400 |  |  |  |  |  |  |  |  |  | 9.8 |  |
| human polymeric immunoglobulin receptor (from UniProt P01833) | 4.41 | 7.67 | 8.8 |  | 5.05 |  | 15.5 |  | 13.9 |  | 1.93 |  | 0.72 |
| mouse polymeric immunoglobulin receptor (receptor) KSPIFGPQEVSSIEGDSVSITCYYPDTSVNRHTRKYWCRQGASGMCTTLISSNGYLSKEYSGRANLINFPENNTFVINIEQLTQDDTGSYKCGLGTSNRGLSFDVSLEVSQVPELPSDTHVYTKDIGRNVTIECPFKRENAPSKKSLCKKTNQSCELVIDSTEKVNPSYIGRAKLFMKGTDLTVFYVNISHLTHNDAGLYICQAGEGPSADKKNVDLQVLAPEPELLYKDLRSSVTFECDLGREVANEAKYLCRMNKETCDVIINTLGKRDPDFEGRILITPKDDNGRFSVLITGLRKEDAGHYQCGAHSSGLPQEGWPIQTWQLFVNEESTIPNRRSVVKGVTGGSVAIACPYNPKESSSLKYWCRWEGDGNGHCPVLVGTQAQVQEEYEGRLALFDQPGNGTYTVILNQLTTEDAGFYWCLTNGDSRWRTTIELQVAEATREPNLEVTPQNATAVLGETFTVSCHYPCKFYSQEKYWCKWSNKGCHILPSHDEGARQSSVSCDQSSQLVSMTLNPVSKEDEGWYWCGVKQGQTYGETTAIYIAVEERTRGSSHVNPTDANARAKVALEEEVVDSSISEKENKAIPNPGPFANEREIQNVGDQAQENRASGDAGSADGQSRSSSSK | 3.32 | 3.32 | 2.66 |  | 2.54 |  | 5.59 |  | 2.45 |  | 0.69 |  |  |

Continued, values first:

| Kd [1] [nM] | Kd [2] [nM] | Kd [3] [nM] | Kd [4] [nM] | Kd [5] [nM] | Kd [6] [nM] | Kd [7] [nM] | Kd [8] [nM] | Kd [9] [nM] | Kd [10] [nM] | Kd [11] [nM] | Kd [12] [µM] | Kd [13] [nM] | Molecule |
| --- | --- | --- | --- | --- | --- | --- | --- | --- | --- | --- | --- | --- | --- |
| 7400 | 6800 |  |  |  |  |  |  |  |  |  | 7.8 |  | mouse FcRn co-expressed with mouse beta-2 microglobulin (from UniProt Q61559;P01887) (complex) |
|  |  |  |  |  |  |  |  |  |  |  |  | 0.55 | mouse polymeric immunoglobulin receptor (from UniProt O70570) |
